Source: patent US8889620B2, “Pharmaceutical compositions comprising peptide antagonists of vascular endothelial growth factor” (Children's Medical Center Corporation, priority 1997, dated 2014)
Where no end group is shown, it is not given here.

What was measured:
[1] = system: VEGF165-induced proliferation of HUVEC; experiment: Inhibition of VEGF165-stimulated HUVEC proliferation; format: cell-based, human
Procedure: FIG. 6. GST-Ex 7+8 fusion protein inhibits VEGF165-stimulated HUVEC proliferation. HUVEC were cultured in 96-well dishes (5,000 cell/well) as in FIG. 2. Increasing concentrations of VEGF165 (open circles), together with 15 ug/ml GST-Ex 7+8 (closed circles) or 25 ug/ml GST (squares), were added to the medium, and the cells were incubated for 4 more days. DNA synthesis was measured in HUVEC as described in FIG. 2. The results represent the average counts of three wells, and the standard deviations were determined.
(§1) FIG. 7. GST-Ex 7+8 fusion protein inhibits VEGF165 and VEGF121-stimulated HUVEC proliferation. Increasing concentration of VEGF165 (circles) or VEGF121 (square) with 15 ug/ml GST-Ex 7+8 (closed symbols) or without GST-Ex 7+8 (open symbols) were added to HUVEC, and [*H]thymidine incorporation into the DNA was measured as in FIG. 2. The results represent the average counts of three wells and the standard deviations were determined.
(§2) HUVEC were seeded in gelatin-coated 96-well dishes at 4,000 cells/200 Ul/well in M-199 containing 5% FCS and GPS. After 24 H, VEGF isoforms and VEGF exon 7-GST fusion proteins were added to the wells at the same time. The cells were incubated for 72 h, and [3H]thymidine (1 pC/ml) was added for 10-12 h. The medium was aspirated, and the cells were trypsinized and harvested by an automatic cell harvester (TOMTEC) and loaded onto Filtermats (Wallac). The Filtermats were scanned and cpm were determined by a MicroBeta counter (Wallac). The results represent the average of samples assayed in triplicate, and the standard derivations were determined. All experiments were repeated at least three times and similar results were obtained.

VEGF165R on 231 cells = target: T1, VEGF165R on 231 cells (Homo sapiens, UniProt O14786); experiment: Inhibition of 125I-VEGF165 binding to MDA-MB-231 (231) cells
T1 construct: to 231 cells which express only VEGF165R; endogenous in cells; host or cells: MDA-MB-231 (ATCC)
Procedure: (§3) FIGS. 3A-3C. Inhibition of ^125I-VEGF165 binding to HUVEC, MDA MB 231 cells, and PAE-KDR cells by GST-EX 7+8. ^125I-VEGF165 (5 ng,/ml) was bound to subconfluent cultures of HUVEC (3A), MDA MB 23 1 cells (3B), and PAE-KDR cells (3C) in 48-well dishes in the presence of increasing amounts of GST-Ex 7+8 (closed 20 square) or control GST protein (open squares). At the end of a 2-h incubation, the cells were washed and lysed, and the cell-associated radioactivity was determined with a γ-counter. The counts obtained are expressed as the percentage of the counts obtained in the presence of PBS without addition of GST or fusion protein.
(§4) Binding and cross-linking experiments using 125I-VEGF165 and 125I-VEGF121 were performed at described previously (Gitay-Goren, et al., J. Biol. Chem., 287, 6003-6096 (1992), Soker, et al., J: Biol. Chem., 271,5761-5767 (1996)). VEGF binding was quantified by measuring the cell-associated radioactivity in a y-counter (Beckman, Gamma 5500). The counts represent the average of three walls. All experiments were repeated at least three times, and similar results were obtained. 125I-VEGF cross-linked complexes were resolved by 6% SDS-PAGE, and the gels were exposed to a phosphor screen and scanned after 24 h by a PhosphorImager (Molecular Dynamics). Subsequently, the gels were exposed to x-ray film.

[2] = target: T2, KDR/Flk-1 and VEGF165R on HUVEC (Homo sapiens, UniProt O14786); experiment: Inhibition of 125I-VEGF165 binding to HUVEC; details: 125I-VEGF165 5 ng/ml, increasing concentrations of fusion protein, FIG. 3A
T2 construct: HUVEC, which express both KDR/Flk-1 and VEGF165R; endogenous in cells; host or cells: HUVEC (ATCC)
Procedure: as §3
FIGS. 5A and 5B. Localization of a core inhibitory region within exon 7. GST-Ex 7 fusion proteins containing full-length exon 7-encoded domain or truncations at the N-terminal and C-terminal ends were prepared as described in the Examples. ^125I-VEGF165 (5 ng/ml) was bound to subconfluent HUVEC cultures as described in FIG. 3, in the presence of increasing concentrations of the GST fusion proteins. At the end of a 2-h incubation, the cells were washed and lysed, and the cell-associated radioactivity was determined with a y counter. The counts obtained are expressed as percentage of the counts obtained in the presence of PBS without fusion protein B, the amino acid sequences of VEGF exon 7 derivatives. These derivatives were prepared to contain the first cysteine residue of exon 8 at their C termini to keep an even number of cysteine residue. FIG. 5B discloses SEQ ID NO: 19.
as §4

VEGF165R = VEGF165R (Homo sapiens, UniProt O14786); experiment: Direct binding/cross-linking of 125I-GST-Ex 7 to HUVEC: VEGF165R; design: HUVEC, which express both KDR/Flk-1 and VEGF165R; endogenous in cells; host or cells: HUVEC (ATCC); details: cross-linking, 1 ug/ml heparin, FIG. 1 lane 3
Procedure: FIG. 1. Cross-linking of 1 ^125I-VEGF165, ^125I-VEGF121 and ^125I-GST-EX 7 to HUVEC. ^125I-VEGF165 (5 ng/ml) (lane 1) or ^125I-VEGF121 (10 ng/ml) (lane 2) or ^125I-GST-EX 7 (50 nglml) (lane 3) were bound to subconfluent cultures of HUVEC in 6-cm dishes. The binding was carried out in the presence of 1 ug/ml heparin. At the end of a 2-H incubation, each ^125I-VEGF isoform was chemically cross-linked to the cell surface. The cells were lysed and proteins were resolved by 6% SDS-PAGE. The polyacrylamide gel was dried and exposed to x-ray film.
as §4

[3] = system: VEGF121-induced proliferation of HUVEC; experiment: Inhibition of VEGF121-stimulated HUVEC proliferation; format: cell-based, human
Procedure: as §1, §2

KDR/Flk-1 = KDR/Flk-1 (Homo sapiens, UniProt P35968); experiment: Cross-linking of 125I-VEGF165 to KDR/Flk-1 on PAE-KDR cells; format: binding, porcine endothelial cells transfected to express KDR/Flk-1; design: expressed in transfected cells; host or cells: porcine endothelial cells (PAE), gift of Dr. Claesson-Welsh; details: data not shown
Procedure: as §4

T1 sequence (O14786 22-923): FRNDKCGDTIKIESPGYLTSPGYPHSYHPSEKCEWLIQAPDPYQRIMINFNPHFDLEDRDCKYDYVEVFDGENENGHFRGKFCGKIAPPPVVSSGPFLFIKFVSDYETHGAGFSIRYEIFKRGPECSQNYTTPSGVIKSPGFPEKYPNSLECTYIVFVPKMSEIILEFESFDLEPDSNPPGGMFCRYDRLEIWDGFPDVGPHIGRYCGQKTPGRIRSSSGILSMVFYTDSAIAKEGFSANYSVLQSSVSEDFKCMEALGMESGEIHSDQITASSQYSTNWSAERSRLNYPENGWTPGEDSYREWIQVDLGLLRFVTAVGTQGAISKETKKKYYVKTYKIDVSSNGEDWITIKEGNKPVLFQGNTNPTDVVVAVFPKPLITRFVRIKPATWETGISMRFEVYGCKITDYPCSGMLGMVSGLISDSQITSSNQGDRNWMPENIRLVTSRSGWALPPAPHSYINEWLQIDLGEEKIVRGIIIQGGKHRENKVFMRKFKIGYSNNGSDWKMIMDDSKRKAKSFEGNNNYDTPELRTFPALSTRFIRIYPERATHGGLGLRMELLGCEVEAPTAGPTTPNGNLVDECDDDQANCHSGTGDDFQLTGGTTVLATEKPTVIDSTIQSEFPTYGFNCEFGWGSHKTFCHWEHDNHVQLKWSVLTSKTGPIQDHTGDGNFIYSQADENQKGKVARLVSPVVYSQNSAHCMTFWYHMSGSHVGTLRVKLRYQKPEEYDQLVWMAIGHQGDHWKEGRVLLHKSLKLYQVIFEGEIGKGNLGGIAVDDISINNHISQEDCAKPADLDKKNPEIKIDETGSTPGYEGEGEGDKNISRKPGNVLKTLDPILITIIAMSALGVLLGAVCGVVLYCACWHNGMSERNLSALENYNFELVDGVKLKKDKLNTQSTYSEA
KDR/Flk-1, sequence (P35968 20-1356): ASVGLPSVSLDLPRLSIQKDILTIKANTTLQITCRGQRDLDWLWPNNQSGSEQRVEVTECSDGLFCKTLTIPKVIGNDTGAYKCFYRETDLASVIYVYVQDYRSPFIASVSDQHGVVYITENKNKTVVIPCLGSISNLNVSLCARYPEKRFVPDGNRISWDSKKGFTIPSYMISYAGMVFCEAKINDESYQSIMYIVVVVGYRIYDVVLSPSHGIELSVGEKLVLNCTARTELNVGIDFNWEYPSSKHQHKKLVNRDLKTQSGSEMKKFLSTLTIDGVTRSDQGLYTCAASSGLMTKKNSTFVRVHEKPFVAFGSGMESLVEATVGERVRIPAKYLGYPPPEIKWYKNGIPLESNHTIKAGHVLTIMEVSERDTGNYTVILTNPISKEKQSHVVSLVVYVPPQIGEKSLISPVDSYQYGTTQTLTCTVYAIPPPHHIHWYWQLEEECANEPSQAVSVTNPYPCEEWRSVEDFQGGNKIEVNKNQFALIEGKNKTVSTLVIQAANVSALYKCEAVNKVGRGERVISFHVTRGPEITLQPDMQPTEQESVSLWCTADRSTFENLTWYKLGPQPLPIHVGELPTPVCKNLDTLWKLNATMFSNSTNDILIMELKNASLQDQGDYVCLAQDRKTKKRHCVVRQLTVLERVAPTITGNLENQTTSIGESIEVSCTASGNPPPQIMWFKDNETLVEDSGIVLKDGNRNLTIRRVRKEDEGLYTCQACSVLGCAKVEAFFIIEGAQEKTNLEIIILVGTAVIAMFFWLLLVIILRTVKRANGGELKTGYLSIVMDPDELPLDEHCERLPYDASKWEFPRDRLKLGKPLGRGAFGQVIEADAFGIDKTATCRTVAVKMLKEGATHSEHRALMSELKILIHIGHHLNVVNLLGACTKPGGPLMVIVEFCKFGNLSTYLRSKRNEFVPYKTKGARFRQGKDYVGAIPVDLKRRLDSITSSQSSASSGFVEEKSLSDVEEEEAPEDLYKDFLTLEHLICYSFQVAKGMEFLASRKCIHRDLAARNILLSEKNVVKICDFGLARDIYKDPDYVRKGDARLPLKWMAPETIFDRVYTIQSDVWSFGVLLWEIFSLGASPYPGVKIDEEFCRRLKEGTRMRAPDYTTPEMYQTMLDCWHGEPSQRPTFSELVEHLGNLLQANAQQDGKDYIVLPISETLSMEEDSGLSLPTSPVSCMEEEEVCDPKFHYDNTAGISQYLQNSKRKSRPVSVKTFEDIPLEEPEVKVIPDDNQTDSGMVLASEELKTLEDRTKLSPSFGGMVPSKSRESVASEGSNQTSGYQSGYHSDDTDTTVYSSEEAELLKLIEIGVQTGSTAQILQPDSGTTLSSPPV
VEGF165R, sequence (O14786 22-923): as the sequence (O14786 22-923) above
T2 sequence (O14786 22-923): as above

inhibition of 125I-VEGF165 binding to 231 cells (VEGF165R on 231 cells; 125I-VEGF165 5 ng/ml, increasing concentrations of fusion protein, FIG. 3B): 97-98%
VEGF165 binding to 231 breast cancer cells (in words) (VEGF165R on 231 cells; cells express VEGF165R and not KDR/Flk-1): inhibits
inhibition of 125I-VEGF165 binding to HUVEC [2]: 85-95%
direct binding to VEGF165R on HUVEC (in words) (VEGF165R): binds
cross-linking of 125I-VEGF165 to KDR/Flk-1 on PAE-KDR cells (in words) (KDR/Flk-1): did not inhibit
Substance: GST-Ex 7+8: GST fusion protein containing the peptide encoded by VEGF165 exons 7 and 8 (PCGPCSERRKHLFVQDPQTCKCSCKNTDSRCKARQLELNERTCRCDKPRR; cysteine pairing not given here; also: GST fusion protein, side of fusion not given here)
reduction of VEGF165-induced HUVEC proliferation ([1]; 15 ug/ml fusion protein added with VEGF165, FIG. 6): about 60%
inhibition of the level of VEGF165-induced mitogenicity ([1]; FIG. 7, 15 ug/ml): about 2 fold
inhibition of the mitogenic activity of VEGF121 for HUVEC [3]: about 50%
inhibition of VEGF125-mediated HUVEC proliferation ([3]; 15 ug/ml, FIG. 7): about 2 fold
